Starred links: 1 amine or outer side, 2 acyl side, 3 side chain; linkers in the order of their positions; H or OH if unused. Positions of bridges follow the written chain, without caps; N, C: chain ends. Non-standard residues stand in square brackets, D forms with d. Primed or numbered codes have the meaning given here. PyrS2″ = (S)-3-amino-1-((pent-4-en-1-yloxy)carbonyl)pyrrolidine-3-carboxylic acid (stapling residue), C=CCCCOC(=O)N1CC[C@@](N[*:1])(C(=O)[*:2])C1; B5(5) = 2,2-bis(4-pentenyl)glycine, 2-amino-2-(pent-4-en-1-yl)hept-6-enoic acid (stitching residue), C=CCCCC(CCCC=C)(N[*:1])C(=O)[*:2]; PyrS2 = (S)-3-amino-1-((pent-4-en-1-yloxy)carbonyl)pyrrolidine-3-carboxylic acid, C=CCCCOC(=O)N1CC[C@@](N[*:1])(C(=O)[*:2])C1; B5(19) = 2-amino-2-(pent-4-en-1-yl)hept-6-enoic acid (bis(4-pentenyl)glycine), C=CCCCC(CCCC=C)(N[*:1])C(=O)[*:2]; B5 = 2-amino-2-(pent-4-en-1-yl)hept-6-enoic acid, C=CCCCC(CCCC=C)(N[*:1])C(=O)[*:2]; Phe(3-CF3) = N[C@@H](Cc1cccc(C(F)(F)F)c1)C(=O)O; Phe(3-OMe) = COc1cccc(C[C@H](N)C(=O)O)c1; Bta = N[C@@H](Cc1csc2ccccc12)C(=O)O; αAllylPro = C=CC[C@@]1(C(=O)O)CCCN1; tBuAla = CC(C)(C)C[C@H](N)C(=O)O; S8 = C=CCCCCCC[C@](C)(N)C(=O)O
Columns and labels:
[1] = target: B-cat-Halo (beta-catenin HaloTag fusion expressed in HEK293 cells) (UniProt P35222 1-781); assay: NanoBRET Abs IC50 in HEK293 cells; Bcat-Halo / TCF4-Luc engagement, competitor TCF4-Luc
[2] = target: T1, full-length beta-Catenin (Uniprot ID P35222) (Homo sapiens (Human), UniProt P35222 1-781); assay: fluorescence polarization competition; full-length beta-catenin with 5FAM-labeled TCF4 residues 10-53 probe as competitor
T1 construct: also called bCat; B-Catenin
T1 sequence: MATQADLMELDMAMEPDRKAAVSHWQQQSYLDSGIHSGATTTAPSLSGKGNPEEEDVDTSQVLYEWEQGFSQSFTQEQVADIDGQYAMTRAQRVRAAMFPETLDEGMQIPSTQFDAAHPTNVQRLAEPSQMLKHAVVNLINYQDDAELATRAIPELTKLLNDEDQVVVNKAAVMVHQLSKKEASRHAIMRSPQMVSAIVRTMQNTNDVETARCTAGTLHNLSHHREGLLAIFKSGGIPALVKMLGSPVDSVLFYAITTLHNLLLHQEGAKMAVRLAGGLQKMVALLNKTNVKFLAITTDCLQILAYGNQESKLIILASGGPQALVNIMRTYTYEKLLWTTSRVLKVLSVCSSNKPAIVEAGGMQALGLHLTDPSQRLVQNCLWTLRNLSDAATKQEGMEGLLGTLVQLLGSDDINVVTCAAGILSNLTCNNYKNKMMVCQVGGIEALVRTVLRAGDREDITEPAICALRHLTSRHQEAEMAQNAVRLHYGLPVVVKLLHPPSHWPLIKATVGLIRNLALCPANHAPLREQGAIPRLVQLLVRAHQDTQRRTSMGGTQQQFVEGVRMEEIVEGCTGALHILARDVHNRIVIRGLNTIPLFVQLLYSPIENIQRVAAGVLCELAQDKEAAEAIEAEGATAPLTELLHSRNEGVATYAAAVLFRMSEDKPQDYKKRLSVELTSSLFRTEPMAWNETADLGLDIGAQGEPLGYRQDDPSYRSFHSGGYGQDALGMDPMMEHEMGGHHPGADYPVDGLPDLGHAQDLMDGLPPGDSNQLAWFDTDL
Procedure: (§1) The plate was incubated protected from light for 60 minutes at 20° C. prior to read. Reads were performed on a CLARIOstar plate reader (BMG Labtech) in duplicate, and data were fitted to a 1:1 binding model with hill slope using an in-house script. All provided concentrations are final concentrations.

[3] = target: T2, full-length beta-Catenin (Uniprot ID P35222) (Homo sapiens (Human), UniProt P35222 2-781); assay: fluorescence polarization competition; full-length beta-catenin, 5FAM-TCF4(10-53) probe as competitor
T2 construct: The FP protocol names full-length beta-Catenin (Uniprot ID P35222); also called bCat; B-Catenin
T2 sequence: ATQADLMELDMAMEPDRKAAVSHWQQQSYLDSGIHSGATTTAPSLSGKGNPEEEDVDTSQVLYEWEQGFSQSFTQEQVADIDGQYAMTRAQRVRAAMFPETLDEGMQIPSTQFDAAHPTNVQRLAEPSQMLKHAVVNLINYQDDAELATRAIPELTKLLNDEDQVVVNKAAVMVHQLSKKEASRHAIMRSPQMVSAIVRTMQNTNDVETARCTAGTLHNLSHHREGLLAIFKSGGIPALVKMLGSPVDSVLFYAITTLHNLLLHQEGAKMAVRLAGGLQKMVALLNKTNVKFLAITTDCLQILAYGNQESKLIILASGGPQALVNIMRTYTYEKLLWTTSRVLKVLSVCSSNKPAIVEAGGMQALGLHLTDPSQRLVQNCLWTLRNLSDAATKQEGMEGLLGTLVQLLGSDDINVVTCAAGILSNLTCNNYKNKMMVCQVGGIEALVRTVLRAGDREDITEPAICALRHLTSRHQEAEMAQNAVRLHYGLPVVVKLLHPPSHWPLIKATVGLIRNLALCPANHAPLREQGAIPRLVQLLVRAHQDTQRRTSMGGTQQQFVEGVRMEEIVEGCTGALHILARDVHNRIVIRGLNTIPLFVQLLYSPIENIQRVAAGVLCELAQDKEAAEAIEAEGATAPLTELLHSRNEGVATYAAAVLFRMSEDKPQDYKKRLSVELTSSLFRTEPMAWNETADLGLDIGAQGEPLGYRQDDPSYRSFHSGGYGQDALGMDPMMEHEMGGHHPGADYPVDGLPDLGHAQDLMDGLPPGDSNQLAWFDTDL
Procedure: as §1

[4] = target: T3, B-cat-Halo (beta-catenin HaloTag NanoBRET construct expressed in HEK293 cells) (UniProt P35222 1-781, HaloTag NanoBRET 618 Ligand bound in the assay); assay: cell-based or functional assay
T3 sequence (looked up): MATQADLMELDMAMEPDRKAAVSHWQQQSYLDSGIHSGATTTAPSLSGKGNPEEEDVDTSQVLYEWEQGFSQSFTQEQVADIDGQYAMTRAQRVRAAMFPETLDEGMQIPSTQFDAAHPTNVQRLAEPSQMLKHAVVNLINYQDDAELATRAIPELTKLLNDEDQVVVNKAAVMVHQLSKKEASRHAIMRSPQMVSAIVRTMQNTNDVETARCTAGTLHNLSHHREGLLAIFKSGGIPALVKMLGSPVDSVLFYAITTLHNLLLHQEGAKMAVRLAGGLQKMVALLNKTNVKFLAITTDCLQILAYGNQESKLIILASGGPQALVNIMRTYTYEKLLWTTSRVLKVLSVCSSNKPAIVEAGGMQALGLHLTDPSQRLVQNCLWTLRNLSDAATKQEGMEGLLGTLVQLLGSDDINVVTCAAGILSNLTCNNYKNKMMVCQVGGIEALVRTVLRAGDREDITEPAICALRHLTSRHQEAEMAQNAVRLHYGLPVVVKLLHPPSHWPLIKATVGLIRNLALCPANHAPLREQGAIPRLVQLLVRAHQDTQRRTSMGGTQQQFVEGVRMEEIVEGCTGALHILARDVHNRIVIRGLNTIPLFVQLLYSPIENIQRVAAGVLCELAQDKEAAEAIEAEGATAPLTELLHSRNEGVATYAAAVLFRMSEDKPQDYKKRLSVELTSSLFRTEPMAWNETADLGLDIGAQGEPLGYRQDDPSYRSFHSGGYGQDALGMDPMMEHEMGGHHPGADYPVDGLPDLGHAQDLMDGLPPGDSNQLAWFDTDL

[5] = target: T4, B-cat-Halo (beta-catenin HaloTag construct expressed in HEK293 cells) (UniProt P35222 1-781, HaloTag NanoBRET 618 Ligand bound in the assay); assay: NanoBRET Abs IC50 in HEK293 cells; B-cat-Halo with competitor TCF4-Luc
T4 construct: Transfected NanoBRET construct; not shown: HaloTag
T4 sequence (looked up): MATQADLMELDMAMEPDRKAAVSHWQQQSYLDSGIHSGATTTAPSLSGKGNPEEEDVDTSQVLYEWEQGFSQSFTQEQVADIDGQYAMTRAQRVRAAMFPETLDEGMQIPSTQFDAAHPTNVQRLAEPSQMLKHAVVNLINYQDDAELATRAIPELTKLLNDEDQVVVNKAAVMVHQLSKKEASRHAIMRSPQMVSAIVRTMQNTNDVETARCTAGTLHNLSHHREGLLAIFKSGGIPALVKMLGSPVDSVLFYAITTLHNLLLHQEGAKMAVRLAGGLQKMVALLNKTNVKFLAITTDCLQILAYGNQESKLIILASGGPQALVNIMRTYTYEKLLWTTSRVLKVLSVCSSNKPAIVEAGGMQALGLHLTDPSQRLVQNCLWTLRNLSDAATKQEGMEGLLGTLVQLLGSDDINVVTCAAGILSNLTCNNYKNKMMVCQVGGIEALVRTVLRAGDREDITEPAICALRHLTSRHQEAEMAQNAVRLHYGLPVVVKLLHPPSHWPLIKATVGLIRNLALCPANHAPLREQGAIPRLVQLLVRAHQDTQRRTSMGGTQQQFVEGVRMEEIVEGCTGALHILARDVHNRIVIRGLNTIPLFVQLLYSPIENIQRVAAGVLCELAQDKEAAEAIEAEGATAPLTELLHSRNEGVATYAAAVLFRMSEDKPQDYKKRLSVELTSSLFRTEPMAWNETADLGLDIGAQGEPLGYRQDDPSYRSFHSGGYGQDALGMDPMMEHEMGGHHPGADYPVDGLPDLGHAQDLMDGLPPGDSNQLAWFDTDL

[6] = target: T5, full-length beta-Catenin (Uniprot ID P35222) (Homo sapiens (Human), UniProt P35222 2-781); assay: fluorescence polarization competition; full-length beta-catenin, competitor 5FAM-TCF4 10-53 probe
T5 construct: Given as 'full-length beta-Catenin (Uniprot ID P35222)' in the fluorescence polarization protocol; also called bCat; B-Catenin
T5 sequence: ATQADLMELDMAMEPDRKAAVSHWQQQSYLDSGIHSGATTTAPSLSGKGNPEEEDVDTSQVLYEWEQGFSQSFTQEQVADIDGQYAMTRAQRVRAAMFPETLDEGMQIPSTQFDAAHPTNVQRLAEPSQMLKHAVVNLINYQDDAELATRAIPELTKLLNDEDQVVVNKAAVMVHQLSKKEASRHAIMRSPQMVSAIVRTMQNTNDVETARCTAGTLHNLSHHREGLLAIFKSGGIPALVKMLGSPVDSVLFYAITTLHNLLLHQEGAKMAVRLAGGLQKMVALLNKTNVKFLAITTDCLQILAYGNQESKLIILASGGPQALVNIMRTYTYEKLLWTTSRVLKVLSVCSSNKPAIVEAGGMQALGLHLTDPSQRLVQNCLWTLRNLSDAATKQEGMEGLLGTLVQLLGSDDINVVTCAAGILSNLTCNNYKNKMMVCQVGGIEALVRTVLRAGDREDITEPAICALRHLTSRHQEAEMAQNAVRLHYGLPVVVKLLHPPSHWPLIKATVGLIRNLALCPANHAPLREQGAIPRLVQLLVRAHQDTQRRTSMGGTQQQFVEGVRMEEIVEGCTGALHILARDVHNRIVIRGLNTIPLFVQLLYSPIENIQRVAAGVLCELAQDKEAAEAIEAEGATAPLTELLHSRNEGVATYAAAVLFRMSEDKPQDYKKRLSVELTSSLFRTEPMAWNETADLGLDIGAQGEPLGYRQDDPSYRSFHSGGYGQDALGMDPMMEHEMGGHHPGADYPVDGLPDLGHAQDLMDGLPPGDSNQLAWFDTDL
Procedure: as §1

Ac-[αAllylPro]D[tBuAla][B5(5)]DTAA[Phe(3-CF3)]T[PyrS2″]F[Bta]S-NH2 (staple 1-4, 4-11) [I-1268: Ac-PL3-Asp-Npg-B5-Asp-Thr-Ala-Ala-3F3MeF-Thr-PyrS2-Phe-BztA-Ser-NH2]
IC50 [1]: 28.4 µM

Ac-[αAllylPro]DI[B5]DEAA[Phe(3-OMe)]Q[S8]F[Bta]Q-NH2 (staple 1-4, 4-11, Stapled peptide composition) [I-724]
EC50 [2]: 0.114 µM

B1: I-1811 (peptide)
peptide: Ac-[αAllylPro]DL[B5(19)]DDAAFL[PyrS2]FWQ-NH2
modifications: staple 1-4, 4-11
notes: Stapled peptide; also called Ac-PL3-Asp-Leu-B5-Asp-Asp-Ala-Ala-Phe-Leu-PyrS2-Phe-Trp-Gln-NH2
IC50 [3]: 0.156 µM
NanoBRET Abs IC50 [4]: 32.3 µM

Ac-[αAllylPro]DL[B5(19)]DDAAFL[PyrS2]F[Bta]Q-NH2 (staple 1-4, 4-11) [I-1402]
IC50 [5]: 27.1 µM
IC50 [6]: 0.009 µM
